Residue numbers refer to the chain shown, from its start. Names and notes keep the numbering of the source.
Experiments:
[1] = substrate: ClCCCl; experiment: ITC initial rates, steady-state fit with substrate inhibition; assay type: biochemical, Xanthobacter autotrophicus; settings: 100 mM glycine buffer, pH 8.6, 15 °C
[2] = substrate: ClCCCl; experiment: ITC initial rates, steady-state fit; assay type: biochemical, Xanthobacter autotrophicus; settings: 100 mM glycine buffer, pH 8.6, 15 °C

B1: haloalkane dehalogenase (DhlA) (Xanthobacter autotrophicus) (protein)
chain: MINAIRTPDQRFSNLDQYPFSPNYLDDLPGYPGLRAHYLDEGNSDAEDVFLCLHGEPTWSYLYRKMIPVFAESGARVIAPDFFGFGKSDKPVDEEDYTFEFHRNFLLALIERLDLRNITLVVQDWGGFLGLTLPMADPSRFKRLIIMNACLMTDPVTQPAFSAFVTQPADGFTAWKYDLVTPSDLRLDQFMKRWAPTLTEAEASAYAAPFPDTSYQAGVRKFPKMVAQRDQACIDISTEAISFWQNDWNGQTFMAIGMKDKLLGPDVMYPMKALINGCPEPLEIADAGHFVQEFGEQVAREALKHFAETE
In the case of B1, the Km [1] is reported as 60 ± 10 µM and the kcat [1] is reported as 0.27 ± 0.01 s⁻¹.

B2: haloalkane dehalogenase (DhlA) (Xanthobacter autotrophicus; L262V) (protein)
chain: B1 chain with L262V
B2 was tested, and the Km [1] was 250 ± 30 µM and the kcat [1] was 0.25 ± 0.01 s⁻¹.

B3: haloalkane dehalogenase (DhlA) (Xanthobacter autotrophicus; F128L/L262I) (protein)
chain: B1 chain with F128L, L262I
Work on B3 yielded a Km [1] of 1080 ± 100 µM and a kcat [1] of 0.36 ± 0.02 s⁻¹.

B4: haloalkane dehalogenase (DhlA) (Xanthobacter autotrophicus; F128L/L262V) (protein)
chain: B1 chain with F128L, L262V
With B4 the Km [2] was 1040 ± 60 µM and the kcat [2] was 0.18 ± 0.01 s⁻¹.

B5: haloalkane dehalogenase (DhlA) (Xanthobacter autotrophicus; F128L) (protein)
chain: B1 chain with F128L
In the case of B5, the Km [1] is reported as 700 ± 30 µM and the kcat [1] is reported as 0.05 ± 0.01 s⁻¹.

Reference: paper PMC12445222
